Measurements: paper PMC4938799, “LD Motif Recognition by Talin: Structure of the Talin-DLC1 Complex” (Structure(London, England:1993), 2016)

Experiments:
endogenous paxillin = assay: GST pull-down of endogenous paxillin in A549 and H358 cells; assay type: cell-based, human; conditions: anti-paxillin immunoblot
Description: To investigate whether the biological effects of GST-R8 might be partly mediated via paxillin, we first confirmed that endogenous paxillin is expressed in cell lines A549, H358, and 293T (Figure S6A). […] As a positive control, HEK293 cells were co-transfected with a paxillin-DDK construct (OriGene) and GST-R8 (wild-type, R1544E and 2E mutants), followed by a GST pull-down assay.
Figure S6, related to figure 5. Binding of GST-talin R8 to endogenous paxillin is undetectable in A549 and H358 cells.
(A) The expression of endogenous paxillin in cell lines. Cell extracts were assayed by immunoblotting with anti-paxillin antibody.
(B) A complex of GST-talin R8 with endogenous paxillin is undetectable in A549 (top) and H358 (bottom) cells. Cells were transfected with the GST constructs indicated, and cell extracts subjected to a glutathione bead pull down assay followed by immunoblotting with anti-GST and anti-paxillin antibodies on the same membrane.
(C) Wild-type GST-talin R8 forms a complex with transfected paxillin in 293T cells. […]
G418 colony growth, soft agar growth and cell migration assays - As described previously (Qian et al., 2009), transfected A549 cells were counted, and equal numbers of cells were seeded in […]

endogenous RIAM = assay: GST pull-down of endogenous RIAM in A549 cells; assay type: cell-based, human; conditions: A549 cell extracts, anti-RIAM immunoblot
Description: However, as talin R8 interacts with RIAM ([Goult et al., 2013b]) and paxillin (shown here) in addition to DLC1, we used several approaches to evaluate whether binding of talin R8 to endogenous RIAM or paxillin might have contributed to the observed results. For RIAM, the level of expression in the cell lines used here varied from very low to undetectable. To detect RIAM protein in any of the cell extracts, we had to use an anti-RIAM immunoprecipitation step followed by anti-RIAM immunoblotting. Using these conditions, endogenous RIAM was detected in A549 and H358 cells, but not in 293T cells (Figure S5A).
Figure S5, related to figure 6. […]
form a detectable complex with GST-talin R8.
(A) The expression of endogenous RIAM in cell lines. Cell extracts were subjected to immunoprecipitation followed by immunoblotting with anti-RIAM antibody.
(B) A complex between GST-talin R8 and endogenous RIAM is undetectable in A549 cells.
A549 cells were co-transfected with GFP-DLC1 and the GST constructs indicated. Cell extracts were subject to a glutathione bead pull down assay followed by immunoblotting with anti-GST and anti-RIAM antibodies on the same membrane (left). No complex between GST-talin R8 and RIAM could be detected. Under the same conditions, wild-type GST-R8 pulled-down the co-transfected GFP-DLC1; the immunoblot with anti-GST and anti-DLC1 on the same membrane is shown (right). […]

B1: GST-R8: GST-tagged talin R8, amino acids 1,453–1,580 (protein)
chain: NSQAGQQGLVEPTQFARANQAIQMACQSLGEPGCTQAQVLSAATIVAKHTSALCNSCRLASARTANPTAKRQFVQSAKEVANSTANLVKTIKALDGDFTEENRAQCRAATAPLLEAVDNLSAFASNPE
modifications: left off: GST, end not stated, kept
Endogenous paxillin
  complex with endogenous paxillin: insufficient to detect binding
Endogenous paxillin; listed as GST-talin R8
  complex with endogenous paxillin: undetectable
Endogenous RIAM
  complex with endogenous RIAM: did not detect a GST-R8 complex
Endogenous RIAM; listed as GST-talin R8
  complex with endogenous RIAM: undetectable
